# Laboratory results as given in article PMC3865061.
# B1: Influenza A virus matrix protein M1 (full-length), strain A/Puerto Rico/8/34 (H1N1), P03485 1-252 (natural protein)
# chain: MSLLTEVETYVLSIIPSGPLKAEIAQRLEDVFAGKNTDLEVLMEWLKTRPILSPLTKGILGFVFTLTVPSERGLQRRRFVQNALNGNGDPNNMDKAVKLYRKLKREITFHGAKEISLSYSAGALASCMGLIYNRMGAVTTEVAFGLVCATCEQIADSQHRSHRQMVTTTNPLIRHENRMVLASTTAKAMEQMAGSSEQAAEAMEVASQARQMVQAMRTIGTHPSSSAGLKNDLLENLQAYQKRMGVQMQRFK
# Legend:
# [1] = biological target: T1, Influenza A virus matrix protein M1 (full-length), strain A/Puerto Rico/8/34 (H1N1) (Influenza A virus A/Puerto Rico/8/34 (H1N1)), P03485; assay: AUC; details: remark: other sources report otherwise
# T1 chain: B1 chain
# [2] = biological target: T1, Influenza A virus matrix protein M1 …; assay: SAXS; details: remark: other sources report otherwise
binder,measurement,setting,value
B1,volume percent of large associates (volume percent),[1],2 to 3
same,volume fraction of clusters (volume fraction),[2],0.03
